The record followed here is patent publication US20110091971A1, “Differentiation of Pluripotent Stem Cells” (priority 2008, published 2011).

The test has as its system H1 or H9 human embryonic stem cells. Nature of the test: Activin A bioassay: differentiation of human embryonic stem cells to definitive endoderm, cell number and SOX17 intensity by high content analysis (96-well, four days).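 On Cell Number average: Raw total cell count per well from high content imaging.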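 On Sox 17 Intensity average: total fluorescence of the cell multiplied by cell area.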 It is filed as cell-based. The conditions noted are these: for Sox 17 Intensity % of control: control = R&D Sys Activin A 100 ng/ml on same plate. The source says:
Activin A is an important mediator of differentiation in a broad range of cell types. […] A bioassay that measures this differentiation in human embryonic stem cells was adapted in miniaturized format to 96-well plates for screening purposes. Validation was completed using treatment with commercial sources of activin A and Wnt3a recombinant proteins and measuring protein expression of the transcription factor SOX17, which is considered a representative marker of definitive endoderm.
Live Cell Assay: Briefly, clusters of H1 or H9 human embryonic stem cells were grown on growth factor-reduced MATRIGEL™ (Invitrogen; Cat #356231)-coated tissue culture plastic. Cells were passaged using collagenase (Invitrogen; Cat # Cat #17104-019) treatment and gentle scraping, washed to remove residual enzyme, and plated in a ratio of 1:1 (surface area) on growth factor-reduced MATRIGEL™-coated 96-well plates (black, 96-well; Packard ViewPlates; Cat #6005182). Cells were allowed to attach as clusters and then recover log phase growth over a 1 to 3 day period, feeding daily with MEF conditioned medium supplemented with 8 ng/ml bFGF (R&D Systems; Cat #233-FB).
The assay was initiated by washing the wells of each plate twice in PBS and followed by adding an aliquot (100 μl) of test sample in DMEM:F12 basal medium (Invitrogen; Cat #11330-032) to each well. Test conditions were performed in triplicate, feeding […] by aspirating and replacing the medium from each well with test samples over a total four day assay period. On the first and second day of assay, test samples added to the assay wells were diluted in DMEM:F12 with 0.5% FCS (HyClone; Cat #SH30070.03) and 20 ng/ml Wnt3a (R&D Systems; Cat #1324-WN). On the third and fourth day of assay, test samples added to the assay wells were diluted in DMEM:F12 with 2% FCS, without any Wnt3a. Positive control samples consisted of recombinant human activin A (Peprotech; Cat #120-14) added at a concentration of 100 ng/ml throughout assay plus Wnt3a (20 ng/ml) on days 1 and 2. Negative control samples omitted treatment with both activin A and Wnt3a.
High Content Analysis: At the conclusion of four days of culture, assay plates were washed twice with PBS, fixed with 4% paraformaldehyde at room temperature for 20 minutes, then washed three times with PBS and permeabilized with 0.5% Triton X-100 for 20 minutes at room temperature. Cells were washed again three times with PBS and blocked with 4% chicken serum (Invitrogen; Cat #16110082) in PBS for 30 minutes at room temperature. Primary antibody (goat anti-human SOX17; R&D Systems; cat #AF1924) was diluted 1:100 in 4% chicken serum and added to each well for one hour at room temperature. Alexa Fluor 488 conjugated secondary antibody (chicken anti-goat IgG; Molecular Probes; Cat #) was diluted 1:200 in PBS and added to each sample well after washing three times with PBS. To counterstain nuclei, 4 μg/ml Hoechst 33342 (Invitrogen; Cat #H3570) was added for ten minutes at room temperature. Plates were washed once with PBS and left in 100 μl/well PBS for imaging.
Imaging was performed using an IN Cell Analyzer 1000 (GE Healthcare) utilizing the 51008bs dichroic for cells stained with Hoechst 33342 and Alexa Fluor 488. Exposure times were optimized from positive control wells and from untreated negative control wells stained with secondary antibody alone. Images from 15 fields per well were acquired to compensate for any cell loss during the bioassay and subsequent staining procedures. Measurements for total cell number and total SOX17 intensity were obtained from each well using IN Cell Developer Toolbox 1.7 (GE Healthcare) software. Segmentation for the nuclei was determined based on grayscale levels (baseline range 100-300) and nuclear size. Averages and standard deviations were calculated for each replicate data set. […]

Where [1] appears, read: supernatant concentration 1x, assay dilution 1:20.
Where [2] appears, read: supernatant concentration 10x, assay dilution 1:20.
[3] abbreviates: supernatant concentration 10x, assay dilution 1:40.

B1: ACTN62: activin A variant peptide, SEQ ID 63 (protein)
chain: GLECDGKVNICCKKQSFGQAKDIGWNDWIIAPSGYHGGGCTGECPSHIAGTSGSSLSFHSTVINHYRMRGHSPWANLKSCCSPTKLRPMSMLYYDDGQNIIKKDIQNMVVEECGCT
Regarding B1, under setting [1], the “Cell Number average” value was determined as 1661, the “Sox 17 Intensity average” value amounted to 1.05E+06 and the “Sox 17 Intensity % of control” value was 3.6%. Under setting [2], the “Cell Number average” value worked out at 5728, the “Sox 17 Intensity average” value is 2.45E+05 and the “Sox 17 Intensity % of control” value is recorded as 0.8%. Also, under setting [3], the “Cell Number average” value turned out to be 3782, the “Sox 17 Intensity average” value is given as 1.33E+06 and the “Sox 17 Intensity % of control” value was determined as 4.5%.

B2: ACTN64: activin A variant peptide, SEQ ID 65 (protein)
chain: GLECDGKVNICCKKQSFGQTKDIGWNDWIIAPSGYHGGGCSGECPSHIAGTSGSSLSFHSTVINHYRMRGHSPWANLKSCCSPTKLRPMSMLYYDDGQNIIKKDIQGMVVEECGCT
B2: under setting [1], the “Cell Number average” value worked out at 2415, the “Sox 17 Intensity average” value amounted to 1.30E+06 and the “Sox 17 Intensity % of control” value worked out at 4.4%. Under setting [2], the “Cell Number average” value amounted to 2215, the “Sox 17 Intensity average” value was determined as 1.55E+06 and the “Sox 17 Intensity % of control” value was found to be 5.2%. Besides, under setting [3], the “Cell Number average” value is given as 2688, the “Sox 17 Intensity average” value is recorded as 1.12E+06 and the “Sox 17 Intensity % of control” value was found to be 3.8%.

B3: ACTN87: activin A variant peptide, SEQ ID 88 (protein)
chain: GLECDGKVNICCKKQSFGQAKDIGWNDWIIAPSGYHGGSCSGECPSHIAGTSGSSLSFHSTVINHYRMRGHSPFANLKSCCSPTKLRPMSMLYYDDGQNIIKKDIQNMVVEECGCT
Turning to B3, the “Cell Number average” value is recorded as 1548 under setting [1], 3258 under setting [2] and 3613 under setting [3]. In addition, the “Sox 17 Intensity average” value under setting [1] was determined as 5.85E+05, the “Sox 17 Intensity average” value under setting [2] was determined as 7.89E+05 and the “Sox 17 Intensity average” value under setting [3] was 3.99E+05. Also, the “Sox 17 Intensity % of control” value runs as follows: under setting [1], 2.6%; under setting [2], 3.4%; under setting [3], 1.7%.

B4: ACTN75: activin A variant peptide, SEQ ID 76 (protein)
chain: GLECDGKVNICCKKQSFGQAKDIGWNDWIIAPSGYHGGGCSGECPSHIAGTSGSSLSFHSTVINHYRMRGHSPWANLKSCCSPTKLRPMSMLYYDDGQNIIKKDIQRMKVEECGCT
For the molecule B4, the “Cell Number average” value under setting [1] came out at 2873, the “Cell Number average” value under setting [2] was 3867 and the “Cell Number average” value under setting [3] amounted to 3641. Besides, the “Sox 17 Intensity average” value is 1.81E+05 under setting [1], 3.91E+05 under setting [2] and 1.24E+06 under setting [3]. For the same molecule, the “Sox 17 Intensity % of control” value reads like this: under setting [1], 0.8%; under setting [2], 1.7%; under setting [3], 5.4%.

B5: ACTN71: activin A variant peptide, SEQ ID 72 (protein)
chain: GLECDGKVNICCKKQSFGQAKDIGWNDWIIAPSGYHGGGCTGECPSHIAGTSGSSLSFHSTVINHYRMRGHSPFANLKSCCSPTKLRPMSMLYYDDGQNIIKKDIQNMKVEECGCT
As to B5, under setting [1], the “Cell Number average” value was found to be 1621, the “Sox 17 Intensity average” value came out at 2.45E+05 and the “Sox 17 Intensity % of control” value is listed as 0.8%. Moreover, under setting [2], the “Cell Number average” value was found to be 3909, the “Sox 17 Intensity average” value was found to be 3.61E+05 and the “Sox 17 Intensity % of control” value turned out to be 1.2%. Under setting [3], the “Cell Number average” value is 1970, the “Sox 17 Intensity average” value worked out at 1.01E+06 and the “Sox 17 Intensity % of control” value was 3.4%.

B6: ACTN76: activin A variant peptide, SEQ ID 77 (protein)
chain: GLECDGKVNICCKKQLFGQTKDIGWNDWIIAPSGYHGGGCSGECPSHIAGTSGSSLSFHSTVINHYRMRGHSPNANLKSCCSPTKLRPMSMLYYDDGQNIIKKDIQGMKVEECGCT
For B6, under setting [1], the “Cell Number average” value was determined as 3613, the “Sox 17 Intensity average” value stood at 9.19E+05 and the “Sox 17 Intensity % of control” value is 4.0%. In addition, under setting [2], the “Cell Number average” value worked out at 4732, the “Sox 17 Intensity average” value was 1.43E+06 and the “Sox 17 Intensity % of control” value was found to be 6.2%. Under setting [3], the “Cell Number average” value is reported as 7608, the “Sox 17 Intensity average” value is reported as 7.54E+05 and the “Sox 17 Intensity % of control” value came out at 3.3%.

B7: ACTN84: activin A variant peptide, SEQ ID 85 (protein)
chain: GLECDGKVNICCKKQSFGQAKDIGWNDWIIAPSGYHGGGCSGECPSHIAGTSGSSLSFHSTVINHYRMRGHSPFANLKSCCSPTKLRPMSMLYYDDGQNIIKKDIQNMVVEECGCT
On to B7, for which, under setting [1], the “Cell Number average” value is 1976, the “Sox 17 Intensity average” value is 3.37E+05 and the “Sox 17 Intensity % of control” value turned out to be 1.5%. For the same molecule, under setting [2], the “Cell Number average” value is reported as 2272, the “Sox 17 Intensity average” value is reported as 2.65E+05 and the “Sox 17 Intensity % of control” value is on record as 1.2%. Moreover, under setting [3], the “Cell Number average” value is 5228, the “Sox 17 Intensity average” value turned out to be 8.40E+05 and the “Sox 17 Intensity % of control” value came out at 3.7%.

B8: ACTN79: activin A variant peptide, SEQ ID 80 (protein)
chain: GLECDGKVNICCKKQSFGQAKDIGWNDWIIAPSGYHGGGCTGECPSHIAGTSGSSLSFHSTVINHYRMRGHSPWANLKSCCSPTKLRPMSMLYYDDGQNIIKKDIQRMVVEECGCT
On to B8, for which, under setting [1], the “Cell Number average” value was 2958, the “Sox 17 Intensity average” value is reported as 4.07E+05 and the “Sox 17 Intensity % of control” value amounted to 1.8%. Besides, under setting [2], the “Cell Number average” value is recorded as 7704, the “Sox 17 Intensity average” value is listed as 3.83E+05 and the “Sox 17 Intensity % of control” value came out at 1.7%. Under setting [3], the “Cell Number average” value was determined as 2486, the “Sox 17 Intensity average” value is 6.19E+04 and the “Sox 17 Intensity % of control” value came out at 0.3%.

B9: ACTN63: activin A variant peptide, SEQ ID 64 (protein)
chain: GLECDGKVNICCKKQSFSQAKDIGWNDWIIAPSGYHGGGCTGECPSHIAGTSGSSLSFHSTVINHYRMRGHSPFANLKSCCSPTKLRPMSMLYYDDGQNIIKKDIQGMVVEECGCT
Consider B9, for which the “Cell Number average” value under setting [1] is reported as 3380, the “Cell Number average” value under setting [2] was found to be 1935 and the “Cell Number average” value under setting [3] came to 2718. The “Sox 17 Intensity average” value by setting is: under setting [1], 1.07E+06; under setting [2], 2.28E+06; under setting [3], 2.01E+06. Besides, the “Sox 17 Intensity % of control” value by setting is: under setting [1], 3.6%; under setting [2], 7.7%; under setting [3], 6.8%.
